# Measurements: PMC9943652
# T1: XPG (human, UniProt P28715 2-1186)
# T1 sequence: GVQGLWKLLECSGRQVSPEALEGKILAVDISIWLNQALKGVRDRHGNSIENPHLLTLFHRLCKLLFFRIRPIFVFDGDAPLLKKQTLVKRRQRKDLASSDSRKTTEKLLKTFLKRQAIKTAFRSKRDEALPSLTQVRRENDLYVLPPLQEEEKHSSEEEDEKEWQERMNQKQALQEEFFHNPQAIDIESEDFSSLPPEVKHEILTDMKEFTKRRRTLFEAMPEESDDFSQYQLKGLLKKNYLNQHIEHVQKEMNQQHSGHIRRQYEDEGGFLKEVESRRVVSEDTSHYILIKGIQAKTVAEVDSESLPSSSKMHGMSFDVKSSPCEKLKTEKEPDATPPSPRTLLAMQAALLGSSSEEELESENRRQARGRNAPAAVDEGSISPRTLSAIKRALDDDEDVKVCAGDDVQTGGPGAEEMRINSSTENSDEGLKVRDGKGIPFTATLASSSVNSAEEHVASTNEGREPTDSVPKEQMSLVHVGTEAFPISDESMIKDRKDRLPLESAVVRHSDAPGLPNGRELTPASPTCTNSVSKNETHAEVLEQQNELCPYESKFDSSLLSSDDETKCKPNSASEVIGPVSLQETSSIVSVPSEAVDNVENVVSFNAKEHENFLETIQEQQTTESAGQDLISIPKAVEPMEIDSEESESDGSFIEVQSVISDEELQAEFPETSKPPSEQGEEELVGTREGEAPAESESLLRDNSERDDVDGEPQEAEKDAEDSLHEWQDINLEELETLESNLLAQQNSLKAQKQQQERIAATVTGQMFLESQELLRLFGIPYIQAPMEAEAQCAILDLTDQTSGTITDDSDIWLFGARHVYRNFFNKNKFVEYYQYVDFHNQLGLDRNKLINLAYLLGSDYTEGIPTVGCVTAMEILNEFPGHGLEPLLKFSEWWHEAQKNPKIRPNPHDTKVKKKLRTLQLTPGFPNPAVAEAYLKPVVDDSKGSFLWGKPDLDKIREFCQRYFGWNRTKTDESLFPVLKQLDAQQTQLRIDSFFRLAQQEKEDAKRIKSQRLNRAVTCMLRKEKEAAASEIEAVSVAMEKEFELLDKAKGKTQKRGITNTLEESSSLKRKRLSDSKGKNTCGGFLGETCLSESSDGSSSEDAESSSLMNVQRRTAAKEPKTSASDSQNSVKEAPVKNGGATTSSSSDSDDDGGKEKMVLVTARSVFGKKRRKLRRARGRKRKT
# B1: 3'Cy5 40ss/24ds (mixed)
# DNA 1: TTTTTTTTTTTTTTTTTTTTTTTTTTTTTTTTTTTTTTTTGCTGTTGCCCGTCTCACTGGTGAA
# DNA 2: TTCACCAGTGAGACGGGCAACAGC
# Tests used:
# Assay in all cases: EMSA
# [1] = target: coreTFIIH (7-subunit: XPB, XPD, p62, p52, p44, p34, p8);XPG (human;human, UniProt P19447;P18074;P32780;Q92759;Q13888;Q13889;Q6ZYL4;P28715 …, |)
# [2] = target: coreTFIIH (7-subunit: XPB, XPD, p62, p52, p44, p34, p8) (human, UniProt P19447;P18074;P32780;Q92759;Q13888;Q13889;Q6ZYL4 …)
# [3] = target: T1, XPG
binder,measurement,setting,value
B1,Kd,[1],~19 nM
same,Kd,[2],~82 nM
same,Kd,[3],~134 nM
